The chains are these.
B1: TPR 5TU (parent)
chain: GGAUCUUCUCGAUCUAACAAAAAAGACAAAUCUGCCACAAAGCUUGAGAGCAUCUUCGGAUGCAGAGGCGGCAGCCUUCGGUGGCGCGAUAGCGCCAACGUUCUCAACUAUGACACGCAAAACGCGUGCUCCGUUGAAUGGAGUUUAUCAUG
B2: TPR t1 (parent)
chain: GACCAAUCUGCCCUCAGAGCUCGAGAACAUCUUCGGAUGCAGAGGAGGCAGGCUUCGGUGGCGCGAUAGCGCCAACGUCCUCAACCUCCAAUGCAUCCCACCACAUGAUGAUGCCUGAAGAGCCUUGGUUUUUUG

For part of these data: Fewer inactive variants are shown than the library holds.

The variants in one data set derive from B1. Put plainly: polymerase ribozyme fitness, log enrichment relative to wild type (log ratio); higher = more active; in vitro selection for triplet polymerase activity. The gist of the method:
(§1)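 One round of in vitro selection, in triplicate, was applied to PCR-built, transcribed mutant libraries of each subunit of a heterodimeric triplet polymerase ribozyme. The steps were annealing with a biotinylated primer, partner subunit and triplets, incubation frozen at −7 °C, gel excision of extended constructs, streptavidin-bead capture and RT-PCR. Fitness is the logarithm, base 2, of genotype enrichment over wild-type enrichment from inverse-variance-weighted replicate averages of Illumina-sequenced inputs and outputs, keeping genotypes with ≥10 input reads and ≥1 read per output.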
For A3G C18U G34U C95U A115C, the “polymerase ribozyme fitness (log ratio)” value was -4.09.

Take A3G C8G A22U A26G G46C C96U: the “polymerase ribozyme fitness (log ratio)” value is at most -4.2. On the same count and under the same terms, the same measure for A3U A17C A47U C93U U104A: -1.38; for A3C A17C A19U G25C C93U A115G A120U: at most -4.2. Same read-out and setting: then A3G A97C A107G, with at most -4.2; and A3U A142C, with -1.59. On the same count and under the same terms, then A3G C27U G50A C51U C85A G140U, with at most -4.2; and A3G C5U C35U C85U A106G, with 0.235. In the case of A3U A26U A29U A49C C87U C114U G141A, the “polymerase ribozyme fitness (log ratio)” value is at most -4.2. Still for that read-out and setting: the same measure for A3C C85U G136C: -3.76; for A3U A19U: -0.0693. The same measure, in the same setting: the same measure for A3G U4A A17C A52G G94C U102C C131U: -1.71; for A3G C8G A23C C54A G80C G81A A89U C93G: at most -4.2. On the same count and under the same terms, the same measure for A3G U53C A60C G62C A91G U104C C118A A120U U134G: at most -4.2; for A3G A24C U53A U61A C85G: at most -4.2; for A3G A20C G65C G68C A98G C149U G152U: at most -4.2.

On to A3U A26U C57U C108U C125A A147C U148G, for which the “polymerase ribozyme fitness (log ratio)” value is at most -4.2. On the same count and under the same terms, then A3G C14G A16C U82C C129G C131A, with at most -4.2; and A3U A16U A17G A23C C93U A106G A122G U139G, with at most -4.2; and A3U C105G, with -1.75.

As to A3U C99U, the “polymerase ribozyme fitness (log ratio)” value is -0.307. Same read-out and setting: the same measure for A3U C43A U45A A47U G59C C125U U130C A137G: at most -4.2.

In the case of A3G C5G G48C A52C C54G A66C C76G, the “polymerase ribozyme fitness (log ratio)” value was at most -4.2.

Consider A3G U15G G25U A41C G83A U90A A98U C99G A113G, for which the “polymerase ribozyme fitness (log ratio)” value is at most -4.2. For the variant A3C C8G U9G G59A C87A G92C G117C G133U, the “polymerase ribozyme fitness (log ratio)” value was at most -4.2.

Turning to A3G A30C C51U U55G U61A G68U G83C A142G, the “polymerase ribozyme fitness (log ratio)” value is at most -4.2.

For the variant A3C U9A G11A C35G C75A G117A U145C, the “polymerase ribozyme fitness (log ratio)” value was at most -4.2. Turning to A3U C10U C54A U55A, the “polymerase ribozyme fitness (log ratio)” value is -1.97. Turning to A3G C18A A19G U33G C125U, the “polymerase ribozyme fitness (log ratio)” value was at most -4.2. Still for that read-out and setting: the same measure for A3U G11C U44A G58C G62A G68A G94C: at most -4.2; for A3U C93U: -1.81. On the same count and under the same terms, the same measure for A3C A17G C69G C116G A122G: -1.99; for A3G U33C G58C C116G U139A G141U U146C: at most -4.2; for A3U A24U A66U C93G A107C: at most -4.2. Still for that read-out and setting: then A3C A22U A49U A52G U56A, with -3.02; and A3C A12G C87G, with -3.93; and A3U G58C G59C C96U C131A, with -3.63. Consider A3G C18U A49C C57U C85G G143U, for which the “polymerase ribozyme fitness (log ratio)” value is at most -4.2.

Regarding A3U A17U U55G G84A C96A G133U G152C, the “polymerase ribozyme fitness (log ratio)” value is at most -4.2. A3U G133U U135G: the “polymerase ribozyme fitness (log ratio)” value is at most -4.2. On the same count and under the same terms, then A3C A47U, with -0.813; and A3C C51G U55G C75U C118A, with at most -4.2; and A3C C10G G62U G68C C87U A107C C123U G128A A137C U139C, with at most -4.2. Consider A3C U6G A22C A29C C85G C93U C108G G143A, for which the “polymerase ribozyme fitness (log ratio)” value is at most -4.2. On the same count and under the same terms, the same measure for A3U A12G A28U C87U: at most -4.2; for A3G A20U C36A C87G C129A U139C U146G: at most -4.2. Still for that read-out and setting: then A3C G68U C93A, with at most -4.2. Same read-out and setting: then A3C U56A C69A C93U G126A U139G, with -2.53; and A3C A23U A41C C43U U61A A64C C96U A107C A115G, with at most -4.2. Take A3U A20U C32U G70U G84U A120C: the “polymerase ribozyme fitness (log ratio)” value is at most -4.2.

The next data set covers variants of B2. The description is as above. An outline of the steps:
as §1
For C114A G122A, the “polymerase ribozyme fitness (log ratio)” value was -2.53. Same read-out and setting: then G120C G135A, with 0.738.

Consider G120C G135U, for which the “polymerase ribozyme fitness (log ratio)” value is -0.76.

A121U U125A: the “polymerase ribozyme fitness (log ratio)” value turned out to be 1.66. On the same count and under the same terms, the same measure for A118U C123U: -0.82; for C114A U116G: -3.78; for G117C U130G: -3.7.

Turning to U116A A121G, the “polymerase ribozyme fitness (log ratio)” value amounted to 0.178. The same measure, in the same setting: then G120U G128C, with -1.03; and U116C U130G, with -1.58. Take U109A U131G: the “polymerase ribozyme fitness (log ratio)” value is -5.71. Turning to U133G G135C, the “polymerase ribozyme fitness (log ratio)” value was 0.463. Same read-out and setting: then U131C U132A, with -0.543; and G122U U130G, with -0.749; and U112A G120A, with 0.565.

With G128C U130C, the “polymerase ribozyme fitness (log ratio)” value was -1.33. On the same count and under the same terms, the same measure for G117C C124A: -1.5; for C123A C124U: 2.15.

Turning to G107A U130C, the “polymerase ribozyme fitness (log ratio)” value is -4.85. On the same count and under the same terms, the same measure for C123A G128U: -0.255; for U109C C114U: -4.7; for A111U G113A: -4.49. Still for that read-out and setting: the same measure for A121C G128A: 0.0676.

For A121C G128C, the “polymerase ribozyme fitness (log ratio)” value is -0.622. As for G113U C124G, the “polymerase ribozyme fitness (log ratio)” value was -1.38. Still for that read-out and setting: the same measure for U112C U116A: -1.02.

On to U112G A118G, for which the “polymerase ribozyme fitness (log ratio)” value amounted to 0.909.

For G110A G128U, the “polymerase ribozyme fitness (log ratio)” value is -3.47. On the same count and under the same terms, the same measure for U116G G117C: -2.43; for A121C U125G: 0.923; for G127U U132C: -0.0869. As to A108U C123A, the “polymerase ribozyme fitness (log ratio)” value is -5.15.

Consider A108U C123G, for which the “polymerase ribozyme fitness (log ratio)” value was -3.08. Take A111U U125A: the “polymerase ribozyme fitness (log ratio)” value is -3.84.

These data come from the RNAGym collection of RNA variant scans (doi:10.1073/pnas.2313332121).
